B1: PSD2 (parent)
chain: PLMGETQERERVLTHFSRRYCQCN

Variants of: B1
Experiment: protein stability index of a GFP-peptide fusion (GPS, HEK-293T) (PSI 1-6); higher = more stable
Conditions: c terminus: a fixed tail appended
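Further: lentivirally expressed fusions sorted by FACS into six bins by GFP to DsRed ratio, PSI derived from sequencing read proportions per bin multiplied by bin number.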

Q: For R18W, which protein stability index is on record?
A: 1.79

Q: For R18Y, which protein stability index is on record?
A: 1.97

Q: For R19A, which protein stability index is on record?
A: 2.98

Q: With R19C as the variant, how does the protein stability index read?
A: 3.28

Q: With R19D as the variant, how does the protein stability index read?
A: 3.25

Q: Which protein stability index does the source give for R19E here?
A: 3.74

Q: Which protein stability index does the source give for R19F here?
A: 2.88

Q: For R19G, which protein stability index is on record?
A: 3.71

Q: With R19H as the variant, how does the protein stability index read?
A: 3.24

Q: With R19I as the variant, how does the protein stability index read?
A: 2.54

Q: With R19K as the variant, how does the protein stability index read?
A: 3.17

Q: For R19L, which protein stability index is on record?
A: 2.4

Q: For R19M, which protein stability index is on record?
A: 2.22

Q: Which protein stability index does the source give for R19N here?
A: 3.54

Q: For R19P, which protein stability index is on record?
A: 3.59

Q: With R19Q as the variant, how does the protein stability index read?
A: 3.29

Q: With R19S as the variant, how does the protein stability index read?
A: 3.28

Q: With R19T as the variant, how does the protein stability index read?
A: 3.21

Q: For R19V, which protein stability index is on record?
A: 3.09

Q: For R19W, which protein stability index is on record?
A: 2.14

Q: With R19Y as the variant, how does the protein stability index read?
A: 1.98

Q: With Y20C as the variant, how does the protein stability index read?
A: 3.91

Q: For Y20D, which protein stability index is on record?
A: 4.19

Q: For Y20E, which protein stability index is on record?
A: 4.57

Q: For Y20F, which protein stability index is on record?
A: 2.96

Q: Which protein stability index does the source give for Y20G here?
A: 3.86

Q: For Y20H, which protein stability index is on record?
A: 2.43

Q: For Y20I, which protein stability index is on record?
A: 2.62

Q: Which protein stability index does the source give for Y20K here?
A: 3.92

Q: With Y20L as the variant, how does the protein stability index read?
A: 3

Q: With Y20M as the variant, how does the protein stability index read?
A: 2.69

Q: With Y20N as the variant, how does the protein stability index read?
A: 3.81

Q: For Y20P, which protein stability index is on record?
A: 3.72

Q: For Y20R, which protein stability index is on record?
A: 3.95

Q: With Y20S as the variant, how does the protein stability index read?
A: 3.84

Q: For Y20T, which protein stability index is on record?
A: 3.63

Q: With Y20V as the variant, how does the protein stability index read?
A: 4.11

Q: For Y20W, which protein stability index is on record?
A: 2.42

Q: Which protein stability index does the source give for C21A here?
A: 3.46

Q: With C21D as the variant, how does the protein stability index read?
A: 4.01

Q: Which protein stability index does the source give for C21E here?
A: 3.81

Q: For C21F, which protein stability index is on record?
A: 3.27

Q: For C21G, which protein stability index is on record?
A: 4.23

Q: Which protein stability index does the source give for C21H here?
A: 2.62

Q: For C21I, which protein stability index is on record?
A: 3.06

Q: Which protein stability index does the source give for C21K here?
A: 2.88

Q: For C21L, which protein stability index is on record?
A: 3.23

Q: Which protein stability index does the source give for C21M here?
A: 3.61

Q: Which protein stability index does the source give for C21N here?
A: 3.29

Q: For C21P, which protein stability index is on record?
A: 3.92

Q: For C21Q, which protein stability index is on record?
A: 3.67

Q: With C21S as the variant, how does the protein stability index read?
A: 3.53

Q: With C21T as the variant, how does the protein stability index read?
A: 4.43

Q: With C21V as the variant, how does the protein stability index read?
A: 3.68

Q: For C21W, which protein stability index is on record?
A: 3.17

Q: For Q22A, which protein stability index is on record?
A: 3.55

Q: With Q22C as the variant, how does the protein stability index read?
A: 2.11

Q: With Q22D as the variant, how does the protein stability index read?
A: 3.85

Q: For Q22E, which protein stability index is on record?
A: 3.96

Q: With Q22F as the variant, how does the protein stability index read?
A: 2.42

Q: For Q22G, which protein stability index is on record?
A: 2.29

Q: With Q22H as the variant, how does the protein stability index read?
A: 2.62

Q: For Q22I, which protein stability index is on record?
A: 2.09

Q: For Q22K, which protein stability index is on record?
A: 3.02

Q: Which protein stability index does the source give for Q22L here?
A: 2.39

Q: Which protein stability index does the source give for Q22M here?
A: 2.1

Q: With Q22N as the variant, how does the protein stability index read?
A: 3.18

Q: For Q22P, which protein stability index is on record?
A: 2.71

Q: With Q22R as the variant, how does the protein stability index read?
A: 3.98

Q: Which protein stability index does the source give for Q22S here?
A: 3.04

Q: Which protein stability index does the source give for Q22T here?
A: 3.08

Q: Which protein stability index does the source give for Q22V here?
A: 1.69

Q: With Q22W as the variant, how does the protein stability index read?
A: 2.49

Q: For Q22Y, which protein stability index is on record?
A: 2.08

Q: For C23A, which protein stability index is on record?
A: 4.01

Q: Which protein stability index does the source give for C23D here?
A: 4.04

Q: Which protein stability index does the source give for C23F here?
A: 3.18

Q: With C23G as the variant, how does the protein stability index read?
A: 3.56

Q: For C23H, which protein stability index is on record?
A: 3.44

Q: With C23I as the variant, how does the protein stability index read?
A: 2.99

Q: With C23K as the variant, how does the protein stability index read?
A: 4.92

Q: For C23L, which protein stability index is on record?
A: 2.9

Q: With C23M as the variant, how does the protein stability index read?
A: 2.92

Q: Which protein stability index does the source give for C23N here?
A: 4.07

Q: Which protein stability index does the source give for C23P here?
A: 4.09

Q: Which protein stability index does the source give for C23Q here?
A: 4.39

Q: With C23R as the variant, how does the protein stability index read?
A: 3.6

Q: Which protein stability index does the source give for C23S here?
A: 3.87

Q: With C23T as the variant, how does the protein stability index read?
A: 3.87

Q: For C23V, which protein stability index is on record?
A: 3.56

Q: With C23W as the variant, how does the protein stability index read?
A: 2.67

Q: For C23Y, which protein stability index is on record?
A: 2.85

Q: With N24A as the variant, how does the protein stability index read?
A: 3.04

Q: Which protein stability index does the source give for N24C here?
A: 3.05

Q: With N24D as the variant, how does the protein stability index read?
A: 3.23

Q: Which protein stability index does the source give for N24E here?
A: 3.84

Q: Which protein stability index does the source give for N24F here?
A: 2.79

Q: For N24G, which protein stability index is on record?
A: 3.05

Q: With N24H as the variant, how does the protein stability index read?
A: 3.21

Q: Which protein stability index does the source give for N24I here?
A: 3.07

Q: For N24K, which protein stability index is on record?
A: 2.2

Q: Which protein stability index does the source give for N24L here?
A: 2.71

Q: Which protein stability index does the source give for N24M here?
A: 2.96

Q: Which protein stability index does the source give for N24P here?
A: 3.02

Q: For N24Q, which protein stability index is on record?
A: 2.88

Q: For N24R, which protein stability index is on record?
A: 2.14

Q: For N24S, which protein stability index is on record?
A: 3.38

Q: Which protein stability index does the source give for N24T here?
A: 3.74

Q: For N24V, which protein stability index is on record?
A: 2.69

Q: Which protein stability index does the source give for N24Y here?
A: 2.22
